Key:
[1] = test system: ALS2_T1 TALE nuclease right subunit (synthetic construct); assay: cell_activity; details: yeast beta-galactosidase recombination assay, 37 C, as pair with left subunit; 0.86 (0.02) at 30 C; also cleaves in N. benthamiana leaves (T7EI)
[2] = test system: ALS2_T1 TALE nuclease left subunit (synthetic construct); assay: cell_activity; details: yeast beta-galactosidase recombination assay, 37 C, as pair with right subunit; 0.86 (0.02) at 30 C; also cleaves in N. benthamiana leaves (T7EI)

Row | Sequence | activity (relative to I-SceI (max 1.0)) [1] | activity (relative to I-SceI (max 1.0)) [2]
1 | ACAGTACGACCCAGTCT (double strand) [ALS2_T1 right target half-site] | 0.97 | –
2 | TAGCTTGTTCCACATTT (double strand) [ALS2_T1 left target half-site] | – | 0.97

Source: US20160222395
